In publication doi:10.1101/749960 one finds Kd data, which are given here for one substance.

What is called Kd is the equilibrium constant for the complex coming apart. Low values mean a tighter complex, high ones a looser complex.

For this assay, the target named is isolated C-terminal domain of FusB (FusBCTD) (Pectobacterium carotovorum LMG2410). Nature of the assay: ITC.

Turning to “spinach ferredoxin (FerSp) (from UniProt P00221 51-147) (natural protein)”, the Kd is 8.7 µM.
